{"source": "patent US20220298218A1", "about": "(ANTAG THERAPEUTICS, published 2022)", "binders": {"B1": {"name": "AT445 (peptide)", "peptide": "TFISDYK([AEEA-AEEA-γGlu-C18 diacid])IAMDRIHQQDFVNWLLAQRGPSSGAPPPS-OH", "modifications": "N-terminus assumed", "SMILES": "CC[C@H](C)[C@H](NC(=O)[C@H](CCCCNC(=O)COCCOCCNC(=O)COCCOCCNC(=O)CC[C@H](NC(=O)CCCCCCCCCCCCCCCCC(=O)O)C(=O)O)NC(=O)[C@H](Cc1ccc(O)cc1)NC(=O)[C@H](CC(=O)O)NC(=O)[C@H](CO)NC(=O)[C@@H](NC(=O)[C@H](Cc1ccccc1)NC(=O)[C@@H](N)[C@@H](C)O)[C@@H](C)CC)C(=O)N[C@@H](C)C(=O)N[C@@H](CCSC)C(=O)N[C@@H](CC(=O)O)C(=O)N[C@@H](CCCNC(=N)N)C(=O)N[C@H](C(=O)N[C@@H](Cc1c[nH]cn1)C(=O)N[C@@H](CCC(N)=O)C(=O)N[C@@H](CCC(N)=O)C(=O)N[C@@H](CC(=O)O)C(=O)N[C@@H](Cc1ccccc1)C(=O)N[C@H](C(=O)N[C@@H](CC(N)=O)C(=O)N[C@@H](Cc1c[nH]c2ccccc12)C(=O)N[C@@H](CC(C)C)C(=O)N[C@@H](CC(C)C)C(=O)N[C@@H](C)C(=O)N[C@@H](CCC(N)=O)C(=O)N[C@@H](CCCNC(=N)N)C(=O)NCC(=O)N1CCC[C@H]1C(=O)N[C@@H](CO)C(=O)N[C@@H](CO)C(=O)NCC(=O)N[C@@H](C)C(=O)N1CCC[C@H]1C(=O)N1CCC[C@H]1C(=O)N1CCC[C@H]1C(=O)N[C@@H](CO)C(=O)O)C(C)C)[C@@H](C)CC"}, "B2": {"name": "AT446 (peptide)", "peptide": "TFISDYK([AEEA-AEEA-AEEA-γGlu-C18 diacid])IAMDRIHQQDFVNWLLAQRGPSSGAPPPS-OH", "modifications": "N-terminus assumed", "SMILES": "CC[C@H](C)[C@H](NC(=O)[C@H](CCCCNC(=O)COCCOCCNC(=O)COCCOCCNC(=O)COCCOCCNC(=O)CC[C@H](NC(=O)CCCCCCCCCCCCCCCCC(=O)O)C(=O)O)NC(=O)[C@H](Cc1ccc(O)cc1)NC(=O)[C@H](CC(=O)O)NC(=O)[C@H](CO)NC(=O)[C@@H](NC(=O)[C@H](Cc1ccccc1)NC(=O)[C@@H](N)[C@@H](C)O)[C@@H](C)CC)C(=O)N[C@@H](C)C(=O)N[C@@H](CCSC)C(=O)N[C@@H](CC(=O)O)C(=O)N[C@@H](CCCNC(=N)N)C(=O)N[C@H](C(=O)N[C@@H](Cc1c[nH]cn1)C(=O)N[C@@H](CCC(N)=O)C(=O)N[C@@H](CCC(N)=O)C(=O)N[C@@H](CC(=O)O)C(=O)N[C@@H](Cc1ccccc1)C(=O)N[C@H](C(=O)N[C@@H](CC(N)=O)C(=O)N[C@@H](Cc1c[nH]c2ccccc12)C(=O)N[C@@H](CC(C)C)C(=O)N[C@@H](CC(C)C)C(=O)N[C@@H](C)C(=O)N[C@@H](CCC(N)=O)C(=O)N[C@@H](CCCNC(=N)N)C(=O)NCC(=O)N1CCC[C@H]1C(=O)N[C@@H](CO)C(=O)N[C@@H](CO)C(=O)NCC(=O)N[C@@H](C)C(=O)N1CCC[C@H]1C(=O)N1CCC[C@H]1C(=O)N1CCC[C@H]1C(=O)N[C@@H](CO)C(=O)O)C(C)C)[C@@H](C)CC"}, "B3": {"name": "AT455 (peptide)", "peptide": "TFISDYKIAMDKIHQQDFVNWLLAQKG", "HELM": "PEPTIDE1{T.F.I.S.D.Y.K.I.A.M.D.K.I.H.Q.Q.D.F.V.N.W.L.L.A.Q.K.G}|PEPTIDE2{[O=C(O)CCCCCCCCCCCCCCC(=O)[*:2]].[gGlu]}$PEPTIDE1,PEPTIDE2,7:R3-2:R2$$$V2.0; N-terminus assumed", "SMILES": "CC[C@H](C)[C@H](NC(=O)[C@H](CCCCNC(=O)CC[C@H](NC(=O)CCCCCCCCCCCCCCC(=O)O)C(=O)O)NC(=O)[C@H](Cc1ccc(O)cc1)NC(=O)[C@H](CC(=O)O)NC(=O)[C@H](CO)NC(=O)[C@@H](NC(=O)[C@H](Cc1ccccc1)NC(=O)[C@@H](N)[C@@H](C)O)[C@@H](C)CC)C(=O)N[C@@H](C)C(=O)N[C@@H](CCSC)C(=O)N[C@@H](CC(=O)O)C(=O)N[C@@H](CCCCN)C(=O)N[C@H](C(=O)N[C@@H](Cc1c[nH]cn1)C(=O)N[C@@H](CCC(N)=O)C(=O)N[C@@H](CCC(N)=O)C(=O)N[C@@H](CC(=O)O)C(=O)N[C@@H](Cc1ccccc1)C(=O)N[C@H](C(=O)N[C@@H](CC(N)=O)C(=O)N[C@@H](Cc1c[nH]c2ccccc12)C(=O)N[C@@H](CC(C)C)C(=O)N[C@@H](CC(C)C)C(=O)N[C@@H](C)C(=O)N[C@@H](CCC(N)=O)C(=O)N[C@@H](CCCCN)C(=O)NCC(=O)O)C(C)C)[C@@H](C)CC"}, "B4": {"name": "AT456 (peptide)", "peptide": "TFISDYKIAMDKIHQQDFVNWLLAQKGK", "HELM": "PEPTIDE1{T.F.I.S.D.Y.K.I.A.M.D.K.I.H.Q.Q.D.F.V.N.W.L.L.A.Q.K.G.K}|PEPTIDE2{[O=C(O)CCCCCCCCCCCCCCC(=O)[*:2]].[gGlu]}$PEPTIDE1,PEPTIDE2,7:R3-2:R2$$$V2.0; N-terminus assumed", "SMILES": "CC[C@H](C)[C@H](NC(=O)[C@H](CCCCNC(=O)CC[C@H](NC(=O)CCCCCCCCCCCCCCC(=O)O)C(=O)O)NC(=O)[C@H](Cc1ccc(O)cc1)NC(=O)[C@H](CC(=O)O)NC(=O)[C@H](CO)NC(=O)[C@@H](NC(=O)[C@H](Cc1ccccc1)NC(=O)[C@@H](N)[C@@H](C)O)[C@@H](C)CC)C(=O)N[C@@H](C)C(=O)N[C@@H](CCSC)C(=O)N[C@@H](CC(=O)O)C(=O)N[C@@H](CCCCN)C(=O)N[C@H](C(=O)N[C@@H](Cc1c[nH]cn1)C(=O)N[C@@H](CCC(N)=O)C(=O)N[C@@H](CCC(N)=O)C(=O)N[C@@H](CC(=O)O)C(=O)N[C@@H](Cc1ccccc1)C(=O)N[C@H](C(=O)N[C@@H](CC(N)=O)C(=O)N[C@@H](Cc1c[nH]c2ccccc12)C(=O)N[C@@H](CC(C)C)C(=O)N[C@@H](CC(C)C)C(=O)N[C@@H](C)C(=O)N[C@@H](CCC(N)=O)C(=O)N[C@@H](CCCCN)C(=O)NCC(=O)N[C@@H](CCCCN)C(=O)O)C(C)C)[C@@H](C)CC"}, "B5": {"name": "AT457 (peptide)", "peptide": "TFISDYKIAMDKIHQQDFVNWLLAQKGKKN", "HELM": "PEPTIDE1{T.F.I.S.D.Y.K.I.A.M.D.K.I.H.Q.Q.D.F.V.N.W.L.L.A.Q.K.G.K.K.N}|PEPTIDE2{[O=C(O)CCCCCCCCCCCCCCC(=O)[*:2]].[gGlu]}$PEPTIDE1,PEPTIDE2,7:R3-2:R2$$$V2.0; N-terminus assumed", "SMILES": "CC[C@H](C)[C@H](NC(=O)[C@H](CCCCNC(=O)CC[C@H](NC(=O)CCCCCCCCCCCCCCC(=O)O)C(=O)O)NC(=O)[C@H](Cc1ccc(O)cc1)NC(=O)[C@H](CC(=O)O)NC(=O)[C@H](CO)NC(=O)[C@@H](NC(=O)[C@H](Cc1ccccc1)NC(=O)[C@@H](N)[C@@H](C)O)[C@@H](C)CC)C(=O)N[C@@H](C)C(=O)N[C@@H](CCSC)C(=O)N[C@@H](CC(=O)O)C(=O)N[C@@H](CCCCN)C(=O)N[C@H](C(=O)N[C@@H](Cc1c[nH]cn1)C(=O)N[C@@H](CCC(N)=O)C(=O)N[C@@H](CCC(N)=O)C(=O)N[C@@H](CC(=O)O)C(=O)N[C@@H](Cc1ccccc1)C(=O)N[C@H](C(=O)N[C@@H](CC(N)=O)C(=O)N[C@@H](Cc1c[nH]c2ccccc12)C(=O)N[C@@H](CC(C)C)C(=O)N[C@@H](CC(C)C)C(=O)N[C@@H](C)C(=O)N[C@@H](CCC(N)=O)C(=O)N[C@@H](CCCCN)C(=O)NCC(=O)N[C@@H](CCCCN)C(=O)N[C@@H](CCCCN)C(=O)N[C@@H](CC(N)=O)C(=O)O)C(C)C)[C@@H](C)CC"}, "B6": {"name": "AT458 (peptide)", "peptide": "TFISDYKIAMDKIHQQDFVNWLLAQKGKKND", "HELM": "PEPTIDE1{T.F.I.S.D.Y.K.I.A.M.D.K.I.H.Q.Q.D.F.V.N.W.L.L.A.Q.K.G.K.K.N.D}|PEPTIDE2{[O=C(O)CCCCCCCCCCCCCCC(=O)[*:2]].[gGlu]}$PEPTIDE1,PEPTIDE2,7:R3-2:R2$$$V2.0; N-terminus assumed", "SMILES": "CC[C@H](C)[C@H](NC(=O)[C@H](CCCCNC(=O)CC[C@H](NC(=O)CCCCCCCCCCCCCCC(=O)O)C(=O)O)NC(=O)[C@H](Cc1ccc(O)cc1)NC(=O)[C@H](CC(=O)O)NC(=O)[C@H](CO)NC(=O)[C@@H](NC(=O)[C@H](Cc1ccccc1)NC(=O)[C@@H](N)[C@@H](C)O)[C@@H](C)CC)C(=O)N[C@@H](C)C(=O)N[C@@H](CCSC)C(=O)N[C@@H](CC(=O)O)C(=O)N[C@@H](CCCCN)C(=O)N[C@H](C(=O)N[C@@H](Cc1c[nH]cn1)C(=O)N[C@@H](CCC(N)=O)C(=O)N[C@@H](CCC(N)=O)C(=O)N[C@@H](CC(=O)O)C(=O)N[C@@H](Cc1ccccc1)C(=O)N[C@H](C(=O)N[C@@H](CC(N)=O)C(=O)N[C@@H](Cc1c[nH]c2ccccc12)C(=O)N[C@@H](CC(C)C)C(=O)N[C@@H](CC(C)C)C(=O)N[C@@H](C)C(=O)N[C@@H](CCC(N)=O)C(=O)N[C@@H](CCCCN)C(=O)NCC(=O)N[C@@H](CCCCN)C(=O)N[C@@H](CCCCN)C(=O)N[C@@H](CC(N)=O)C(=O)N[C@@H](CC(=O)O)C(=O)O)C(C)C)[C@@H](C)CC"}}, "note": "*1 amine or outer side, *2 acyl side, *3 side chain or, on linkers, in order; H or OH if unused. Where no end group is shown, it is not given here. Side-chain parts run from the residue outwards. The star is where a group is joined. C18 diacid = O=C(O)CCCCCCCCCCCCCCCCC(=O)*; γGlu = O=C(O)[C@H](CCC(=O)[*:2])N[*:1]; AEEA = NCCOCCOCC(=O)O", "data": [{"biological_target": "T1, human GIP receptor (human, UniProt P48546 22-466)", "T1 sequence (looked up)": "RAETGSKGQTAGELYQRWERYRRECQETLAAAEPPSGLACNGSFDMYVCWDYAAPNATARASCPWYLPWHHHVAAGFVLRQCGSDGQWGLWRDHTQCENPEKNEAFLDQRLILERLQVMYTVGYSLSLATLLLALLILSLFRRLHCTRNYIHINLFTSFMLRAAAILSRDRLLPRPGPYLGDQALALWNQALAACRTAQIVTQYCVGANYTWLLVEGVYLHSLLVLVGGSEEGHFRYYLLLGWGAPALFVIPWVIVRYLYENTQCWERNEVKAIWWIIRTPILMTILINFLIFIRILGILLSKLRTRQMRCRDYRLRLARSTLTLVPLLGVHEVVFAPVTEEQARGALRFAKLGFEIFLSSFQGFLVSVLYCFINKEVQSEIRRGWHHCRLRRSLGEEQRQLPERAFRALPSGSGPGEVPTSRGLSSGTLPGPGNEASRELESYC", "assay": "cell-based or functional assay", "units": {"cAMP antagonism": "nM", "cAMP antagonism % inhib": "%", "cAMP antagonism log": "log M"}, "values": [{"binder": "B1", "cAMP antagonism": 47, "cAMP antagonism % inhib": 85, "cAMP antagonism log": -7.3}, {"binder": "B2", "cAMP antagonism": 152, "cAMP antagonism % inhib": 100, "cAMP antagonism log": -6.8}, {"binder": "B3", "cAMP antagonism": 31, "cAMP antagonism % inhib": 95, "cAMP antagonism log": -7.5}, {"binder": "B4", "cAMP antagonism": 60, "cAMP antagonism % inhib": 85, "cAMP antagonism log": -7.2}, {"binder": "B5", "cAMP antagonism": 14, "cAMP antagonism % inhib": 100, "cAMP antagonism log": -7.9}, {"binder": "B6", "cAMP antagonism": 38, "cAMP antagonism % inhib": 100, "cAMP antagonism log": -7.4}]}]}
